Source: patent publication US20220280440A1, “METHOD FOR THE MANUFACTURE OF A DOSAGE FORM WITH MUCOADHESIVE PROPERTIES FOR BUCCAL ADMINISTRATION OF BIOLOGICS” (UNIVERSIDAD DE CHILE, priority 2016, published 2022)

How the values were obtained:
[1] = FTIR of lysozyme inks with or without glycerol; format: physicochemical; conditions: FIG. 13
Method: On the other hand, since these inks require the addition of glycerol as a viscosity agent, the evaluation of lysozyme inks was performed with or without glycerol by infrared spectroscopy Fourier transform (FTIR).

[2] = Effect of the inkjet printing process on nanosystems (properties before and after printing on inert substrate); format: physicochemical; conditions: lysozyme in nanoparticles
Method: The process of printing on an inert substrate using a suspension with a nanosystem as carriers of biologic drug models was performed using polymeric nanoparticles. The suspension was incorporated into a cartridge for inkjet printing. The particle properties were measured before and after the printing process. […] Results are expressed as means (standard deviation). Except for an increase in the polydispersity index (PDI), the particles maintain their properties during the printing process and define the methodology for incorporating drug loaded nanoparticles on polymer films.
The obtained printing inks with lysozyme or insulin were loaded into Hewlett Packard cartridges compatible with Hewlett Packard Deskjet 1000 printer, and it was installed to run the printing experiments. Using a commercial software tool appropriate for the task, surfaces of 3×3 cm^2 were printed on an inert substrate to evaluate the effect of the printing process on the polymeric nanoparticles. After the printing process, the printed polymeric nanoparticles were recovered by refluxing with 1 mL of Milli-Q® water, and their physicochemical properties in terms of size, polydispersity index, and zeta potential were determined.

lysozyme
Major bands of the FTIR spectra, ink with or without glycerol [1]: does not change during the process
Amount immobilized at the particle and biologic structure during the printing process (load and protein activity studies) [2]: preserved during the printing process
